Here are results for one molecule from PMC4085576.

In this assay the target is microtubules (X-rhodamine labeled, biotin-linked to the surface). Nature of the assay: TIRF microscopy of GFP-tagged protein on immobilised microtubules.

B1: KIF7_(560)-GFP, N-terminal motor domain and first coiled-coil of KIF7 with a C-terminal GFP tag (domain or fragment)
chain: MGLEAQRLPGAEEAPVRVALRVRPLLPKELLHGHQSCLRVEPERGRITLGRDRHFGFHVVLGEDTGQEAVYQACVQPLLEAFFEGFNATVFAYGQTGSGKTYTMGEASVASLHEDEQGIIPRAMAEAFKLIDENDLLDCLVHVSYLELYKEEFRDLLEVGTASRDIQLREDDRGNVVLCGVKEVDVEGLDEVLSLLEMGNAARHTGATHFNRLSSRSHTVFTVTLEQRGRTPSRLPRPAAGHLLVSKFHFVDLAGSERVLKTGSTGERLKESIQINSTLLALGNVISALGDPQRRGSHIPYRDSKITRILKDSLGGNAKTVMIACVSPSSSDFDETLNTLNYASRAQNIRNRATVNWHPEAERVPEEQAAGARGPPRHRSETRIIHRGRRVPCPAVGSAAVAAGLGAECARCRARTSAAYSLLRELQAEPGLPGAAARKVRDWLCAVEGERSTLSSASGPDSGIESAPAEDQAAQGTSGRKGDEGTQQLLTLQSQVARLEEENRDFLAALEDAMEQYKLQSDRLREQQEEMVELRLRLELAQPGWGAPGLLQGLPPGSFV
Molecule B1 had a fold increase in filament-bound KIF7 with 2 mM AMP-PNP against 1 mM MgATP of 2 fold.
